{
  "source": "paper PMC10438392",
  "about": "(Proceedings of the National Academy of Sciences of the …, 2023)",
  "key": {"[1]": {"target": "T1, PurTCp (PurT of Colwellia psychrerythraea) (Colwellia psychrerythraea, UniProt Q484N1)", "T1 sequence (Q484N1 1-482)": "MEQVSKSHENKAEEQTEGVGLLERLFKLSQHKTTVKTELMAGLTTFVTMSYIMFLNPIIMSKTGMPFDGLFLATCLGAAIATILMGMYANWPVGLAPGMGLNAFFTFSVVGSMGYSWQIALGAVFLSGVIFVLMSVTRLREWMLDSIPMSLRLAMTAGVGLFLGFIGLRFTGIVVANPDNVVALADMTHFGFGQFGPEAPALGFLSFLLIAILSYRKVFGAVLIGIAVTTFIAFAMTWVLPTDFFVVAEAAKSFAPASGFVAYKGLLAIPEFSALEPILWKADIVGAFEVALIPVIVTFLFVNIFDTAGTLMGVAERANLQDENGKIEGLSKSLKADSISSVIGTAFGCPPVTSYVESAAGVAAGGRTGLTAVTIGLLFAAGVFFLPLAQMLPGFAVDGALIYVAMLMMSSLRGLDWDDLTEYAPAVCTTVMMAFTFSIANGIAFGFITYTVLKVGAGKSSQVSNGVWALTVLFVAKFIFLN", "experiment": "SPA competition with 3H-xanthine or 3H-guanine", "format": "binding", "settings": "0.5 µM 3H-xanthine or 3H-guanine; pH 8.0"}, "[2]": {"target": "PurT of Colwellia psychrerythraea (PurTCp) (Colwellia psychrerythraea 34H)", "experiment": "cross-linking"}, "[3]": {"target": "PurT of Colwellia psychrerythraea (PurTCp) (Colwellia psychrerythraea 34H)", "experiment": "SEC"}},
  "data": [
    {"molecule": "c1ncc2[nH]cnc2n1", "note": "[purine]", "values": [
      {"measurement": "% inhibition at 250 μM", "setting": "[1]", "result": "2-amino-6-bromopurine, 6-bromopurine, 6-thioguanine, allopurinol, isoguanine, and purine"}
    ]},
    {"molecule": "PurT of Colwellia psychrerythraea (PurTCp) (natural protein)", "values": [
      {"measurement": "stoichiometry N", "setting": "[2]", "result": 2},
      {"measurement": "stoichiometry N", "setting": "[3]", "result": 2}
    ]}
  ]
}
